The values that follow come from patent publication US20110118131A1 (published 2011).

T1: Ep-CAM (UniProt P16422 24-265, limits assumed)
T1 sequence (looked up): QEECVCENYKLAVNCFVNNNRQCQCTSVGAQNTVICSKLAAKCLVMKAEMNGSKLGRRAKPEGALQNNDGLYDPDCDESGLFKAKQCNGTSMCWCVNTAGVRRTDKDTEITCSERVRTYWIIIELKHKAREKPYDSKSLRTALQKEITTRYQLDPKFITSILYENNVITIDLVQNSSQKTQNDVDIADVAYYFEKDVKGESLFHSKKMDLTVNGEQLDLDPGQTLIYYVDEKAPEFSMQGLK

B1: ING-1 Fab, heavy chain N52P (Fab, V domains shown)
VH: QIQLVQSGPELKKPGETVKISCKASGYTFTKYGMNWVKQAPGKGLKWMGWIPTYTEEPTYGDDFKGRFAFSLETSASTANLQINNLKSEDTATYFCARFGSAVDYWGQGTSVTVSS
VL: DIVMTQAAFSNPVTLGTSGSISCRSSKSLLHSNGITYLYWYLQKPGQSPQLLIYQMSNLASGVPDRFSSSGSGTDFTLRISRVEAEDVGVYYCAQNLELPRTFGGGTKLEMKR
notes: Fab in periplasmic extract
B2: ING-1 Fab, heavy chain Y32A (Fab, V domains shown)
VH: QIQLVQSGPELKKPGETVKISCKASGYTFTKAGMNWVKQAPGKGLKWMGWINTYTEEPTYGDDFKGRFAFSLETSASTANLQINNLKSEDTATYFCARFGSAVDYWGQGTSVTVSS
VL: DIVMTQAAFSNPVTLGTSGSISCRSSKSLLHSNGITYLYWYLQKPGQSPQLLIYQMSNLASGVPDRFSSSGSGTDFTLRISRVEAEDVGVYYCAQNLELPRTFGGGTKLEMKR
notes: Fab in periplasmic extract
B3: ING-1 Fab, heavy chain T59P (Fab, V domains shown)
VH: QIQLVQSGPELKKPGETVKISCKASGYTFTKYGMNWVKQAPGKGLKWMGWINTYTEEPPYGDDFKGRFAFSLETSASTANLQINNLKSEDTATYFCARFGSAVDYWGQGTSVTVSS
VL: DIVMTQAAFSNPVTLGTSGSISCRSSKSLLHSNGITYLYWYLQKPGQSPQLLIYQMSNLASGVPDRFSSSGSGTDFTLRISRVEAEDVGVYYCAQNLELPRTFGGGTKLEMKR
notes: Fab in periplasmic extract
B4: ING-1 Fab, heavy chain N52V (Fab, V domains shown)
VH: QIQLVQSGPELKKPGETVKISCKASGYTFTKYGMNWVKQAPGKGLKWMGWIVTYTEEPTYGDDFKGRFAFSLETSASTANLQINNLKSEDTATYFCARFGSAVDYWGQGTSVTVSS
VL: DIVMTQAAFSNPVTLGTSGSISCRSSKSLLHSNGITYLYWYLQKPGQSPQLLIYQMSNLASGVPDRFSSSGSGTDFTLRISRVEAEDVGVYYCAQNLELPRTFGGGTKLEMKR
notes: Fab in periplasmic extract
B5: ING-1 Fab, heavy chain S101L (Fab, V domains shown)
VH: QIQLVQSGPELKKPGETVKISCKASGYTFTKYGMNWVKQAPGKGLKWMGWINTYTEEPTYGDDFKGRFAFSLETSASTANLQINNLKSEDTATYFCARFGLAVDYWGQGTSVTVSS
VL: DIVMTQAAFSNPVTLGTSGSISCRSSKSLLHSNGITYLYWYLQKPGQSPQLLIYQMSNLASGVPDRFSSSGSGTDFTLRISRVEAEDVGVYYCAQNLELPRTFGGGTKLEMKR
notes: Fab in periplasmic extract
B6: ING-1 Fab, heavy chain W50I (Fab, V domains shown)
VH: QIQLVQSGPELKKPGETVKISCKASGYTFTKYGMNWVKQAPGKGLKWMGIINTYTEEPTYGDDFKGRFAFSLETSASTANLQINNLKSEDTATYFCARFGSAVDYWGQGTSVTVSS
VL: DIVMTQAAFSNPVTLGTSGSISCRSSKSLLHSNGITYLYWYLQKPGQSPQLLIYQMSNLASGVPDRFSSSGSGTDFTLRISRVEAEDVGVYYCAQNLELPRTFGGGTKLEMKR
notes: Fab in periplasmic extract
B7: ING-1 Fab, heavy chain Y32I (Fab, V domains shown)
VH: QIQLVQSGPELKKPGETVKISCKASGYTFTKIGMNWVKQAPGKGLKWMGWINTYTEEPTYGDDFKGRFAFSLETSASTANLQINNLKSEDTATYFCARFGSAVDYWGQGTSVTVSS
VL: DIVMTQAAFSNPVTLGTSGSISCRSSKSLLHSNGITYLYWYLQKPGQSPQLLIYQMSNLASGVPDRFSSSGSGTDFTLRISRVEAEDVGVYYCAQNLELPRTFGGGTKLEMKR
notes: Fab in periplasmic extract
B8: ING-1 Fab, heavy chain T55G (Fab, V domains shown)
VH: QIQLVQSGPELKKPGETVKISCKASGYTFTKYGMNWVKQAPGKGLKWMGWINTYGEEPTYGDDFKGRFAFSLETSASTANLQINNLKSEDTATYFCARFGSAVDYWGQGTSVTVSS
VL: DIVMTQAAFSNPVTLGTSGSISCRSSKSLLHSNGITYLYWYLQKPGQSPQLLIYQMSNLASGVPDRFSSSGSGTDFTLRISRVEAEDVGVYYCAQNLELPRTFGGGTKLEMKR
notes: Fab in periplasmic extract
B9: ING-1 Fab, heavy chain T53G (Fab, V domains shown)
VH: QIQLVQSGPELKKPGETVKISCKASGYTFTKYGMNWVKQAPGKGLKWMGWINGYTEEPTYGDDFKGRFAFSLETSASTANLQINNLKSEDTATYFCARFGSAVDYWGQGTSVTVSS
VL: DIVMTQAAFSNPVTLGTSGSISCRSSKSLLHSNGITYLYWYLQKPGQSPQLLIYQMSNLASGVPDRFSSSGSGTDFTLRISRVEAEDVGVYYCAQNLELPRTFGGGTKLEMKR
notes: Fab in periplasmic extract
B10: ING-1 Fab, heavy chain W50V (Fab, V domains shown)
VH: QIQLVQSGPELKKPGETVKISCKASGYTFTKYGMNWVKQAPGKGLKWMGVINTYTEEPTYGDDFKGRFAFSLETSASTANLQINNLKSEDTATYFCARFGSAVDYWGQGTSVTVSS
VL: DIVMTQAAFSNPVTLGTSGSISCRSSKSLLHSNGITYLYWYLQKPGQSPQLLIYQMSNLASGVPDRFSSSGSGTDFTLRISRVEAEDVGVYYCAQNLELPRTFGGGTKLEMKR
notes: Fab in periplasmic extract
B11: ING-1 Fab, heavy chain P58T (Fab, V domains shown)
VH: QIQLVQSGPELKKPGETVKISCKASGYTFTKYGMNWVKQAPGKGLKWMGWINTYTEETTYGDDFKGRFAFSLETSASTANLQINNLKSEDTATYFCARFGSAVDYWGQGTSVTVSS
VL: DIVMTQAAFSNPVTLGTSGSISCRSSKSLLHSNGITYLYWYLQKPGQSPQLLIYQMSNLASGVPDRFSSSGSGTDFTLRISRVEAEDVGVYYCAQNLELPRTFGGGTKLEMKR
notes: Fab in periplasmic extract
B12: ING-1 Fab, heavy chain W50G (Fab, V domains shown)
VH: QIQLVQSGPELKKPGETVKISCKASGYTFTKYGMNWVKQAPGKGLKWMGGINTYTEEPTYGDDFKGRFAFSLETSASTANLQINNLKSEDTATYFCARFGSAVDYWGQGTSVTVSS
VL: DIVMTQAAFSNPVTLGTSGSISCRSSKSLLHSNGITYLYWYLQKPGQSPQLLIYQMSNLASGVPDRFSSSGSGTDFTLRISRVEAEDVGVYYCAQNLELPRTFGGGTKLEMKR
notes: Fab in periplasmic extract
B13: ING-1 Fab, heavy chain N52T (Fab, V domains shown)
VH: QIQLVQSGPELKKPGETVKISCKASGYTFTKYGMNWVKQAPGKGLKWMGWITTYTEEPTYGDDFKGRFAFSLETSASTANLQINNLKSEDTATYFCARFGSAVDYWGQGTSVTVSS
VL: DIVMTQAAFSNPVTLGTSGSISCRSSKSLLHSNGITYLYWYLQKPGQSPQLLIYQMSNLASGVPDRFSSSGSGTDFTLRISRVEAEDVGVYYCAQNLELPRTFGGGTKLEMKR
notes: Fab in periplasmic extract
B14: ING-1 Fab, heavy chain Y32L (Fab, V domains shown)
VH: QIQLVQSGPELKKPGETVKISCKASGYTFTKLGMNWVKQAPGKGLKWMGWINTYTEEPTYGDDFKGRFAFSLETSASTANLQINNLKSEDTATYFCARFGSAVDYWGQGTSVTVSS
VL: DIVMTQAAFSNPVTLGTSGSISCRSSKSLLHSNGITYLYWYLQKPGQSPQLLIYQMSNLASGVPDRFSSSGSGTDFTLRISRVEAEDVGVYYCAQNLELPRTFGGGTKLEMKR
notes: Fab in periplasmic extract
B15: ING-1 Fab, heavy chain W50T (Fab, V domains shown)
VH: QIQLVQSGPELKKPGETVKISCKASGYTFTKYGMNWVKQAPGKGLKWMGTINTYTEEPTYGDDFKGRFAFSLETSASTANLQINNLKSEDTATYFCARFGSAVDYWGQGTSVTVSS
VL: DIVMTQAAFSNPVTLGTSGSISCRSSKSLLHSNGITYLYWYLQKPGQSPQLLIYQMSNLASGVPDRFSSSGSGTDFTLRISRVEAEDVGVYYCAQNLELPRTFGGGTKLEMKR
notes: Fab in periplasmic extract
B16: ING-1 Fab, heavy chain Y32G (Fab, V domains shown)
VH: QIQLVQSGPELKKPGETVKISCKASGYTFTKGGMNWVKQAPGKGLKWMGWINTYTEEPTYGDDFKGRFAFSLETSASTANLQINNLKSEDTATYFCARFGSAVDYWGQGTSVTVSS
VL: DIVMTQAAFSNPVTLGTSGSISCRSSKSLLHSNGITYLYWYLQKPGQSPQLLIYQMSNLASGVPDRFSSSGSGTDFTLRISRVEAEDVGVYYCAQNLELPRTFGGGTKLEMKR
notes: Fab in periplasmic extract
B17: ING-1 Fab, heavy chain T53P (Fab, V domains shown)
VH: QIQLVQSGPELKKPGETVKISCKASGYTFTKYGMNWVKQAPGKGLKWMGWINPYTEEPTYGDDFKGRFAFSLETSASTANLQINNLKSEDTATYFCARFGSAVDYWGQGTSVTVSS
VL: DIVMTQAAFSNPVTLGTSGSISCRSSKSLLHSNGITYLYWYLQKPGQSPQLLIYQMSNLASGVPDRFSSSGSGTDFTLRISRVEAEDVGVYYCAQNLELPRTFGGGTKLEMKR
notes: Fab in periplasmic extract
B18: ING-1 Fab, heavy chain W50A (Fab, V domains shown)
VH: QIQLVQSGPELKKPGETVKISCKASGYTFTKYGMNWVKQAPGKGLKWMGAINTYTEEPTYGDDFKGRFAFSLETSASTANLQINNLKSEDTATYFCARFGSAVDYWGQGTSVTVSS
VL: DIVMTQAAFSNPVTLGTSGSISCRSSKSLLHSNGITYLYWYLQKPGQSPQLLIYQMSNLASGVPDRFSSSGSGTDFTLRISRVEAEDVGVYYCAQNLELPRTFGGGTKLEMKR
notes: Fab in periplasmic extract
B19: ING-1 Fab, heavy chain W50P (Fab, V domains shown)
VH: QIQLVQSGPELKKPGETVKISCKASGYTFTKYGMNWVKQAPGKGLKWMGPINTYTEEPTYGDDFKGRFAFSLETSASTANLQINNLKSEDTATYFCARFGSAVDYWGQGTSVTVSS
VL: DIVMTQAAFSNPVTLGTSGSISCRSSKSLLHSNGITYLYWYLQKPGQSPQLLIYQMSNLASGVPDRFSSSGSGTDFTLRISRVEAEDVGVYYCAQNLELPRTFGGGTKLEMKR
notes: Fab in periplasmic extract
B20: ING-1 Fab, heavy chain W50L (Fab, V domains shown)
VH: QIQLVQSGPELKKPGETVKISCKASGYTFTKYGMNWVKQAPGKGLKWMGLINTYTEEPTYGDDFKGRFAFSLETSASTANLQINNLKSEDTATYFCARFGSAVDYWGQGTSVTVSS
VL: DIVMTQAAFSNPVTLGTSGSISCRSSKSLLHSNGITYLYWYLQKPGQSPQLLIYQMSNLASGVPDRFSSSGSGTDFTLRISRVEAEDVGVYYCAQNLELPRTFGGGTKLEMKR
notes: Fab in periplasmic extract

This experiment concerns the target T1, Ep-CAM. The experiment in a line: Biacore, Fab periplasmic extract on immobilised Epcam.
On to B1, for which the binding result is on record as “no binding”. Take B2: the “fold difference in affinity vs original” value came out at 0.01 fold. Regarding B3, the binding result was “no binding”. As to B4, the binding result was “no binding”. Same read-out and setting: for B5 the value was “no binding”. B6: the “fold difference in affinity vs original” value is 0.07 fold. Same read-out and setting: for B7 the value was 0.03 fold; for B8, 0.02 fold. B9: the binding result is on record as “no binding”. B10: the “fold difference in affinity vs original” value came out at 0.02 fold. On the same count and under the same terms, for B11 the value was 1 fold; for B12, 0.03 fold. B13: the binding result is reported as “no binding”. B14: the “fold difference in affinity vs original” value was 0.05 fold. Same read-out and setting: for B15 the value was 0.03 fold.

B16: the “fold difference in affinity vs original” value turned out to be 0.02 fold. Turning to B17, the binding result is given as “no binding”. On to B18, for which the “fold difference in affinity vs original” value is 0.03 fold. For the molecule B19, the binding result is “no binding”.

Regarding B20, the “fold difference in affinity vs original” value is 0.04 fold.
